These are literature values, as cited in patent US20110110932A1, “COMBINATION TREATMENT FOR OCULAR DISEASES” (OPHTHOTECH CORP., priority 2009, published 2011).

Like-named read-outs stand apart in the source and are kept apart here.

In series [1] the test system is choroidal neovascularization (CNV). The note with it: rabbits, CNV induced by VEGF/bFGF pellets.
Series [2] shares this test system. The note with it: cynomolgus monkeys, laser induced CNV.
Another series has as its target α5β1 integrin (Homo sapiens, UniProt P05556+P08648).

Chain of α5β1 integrin (P08648 42-894 limits assumed): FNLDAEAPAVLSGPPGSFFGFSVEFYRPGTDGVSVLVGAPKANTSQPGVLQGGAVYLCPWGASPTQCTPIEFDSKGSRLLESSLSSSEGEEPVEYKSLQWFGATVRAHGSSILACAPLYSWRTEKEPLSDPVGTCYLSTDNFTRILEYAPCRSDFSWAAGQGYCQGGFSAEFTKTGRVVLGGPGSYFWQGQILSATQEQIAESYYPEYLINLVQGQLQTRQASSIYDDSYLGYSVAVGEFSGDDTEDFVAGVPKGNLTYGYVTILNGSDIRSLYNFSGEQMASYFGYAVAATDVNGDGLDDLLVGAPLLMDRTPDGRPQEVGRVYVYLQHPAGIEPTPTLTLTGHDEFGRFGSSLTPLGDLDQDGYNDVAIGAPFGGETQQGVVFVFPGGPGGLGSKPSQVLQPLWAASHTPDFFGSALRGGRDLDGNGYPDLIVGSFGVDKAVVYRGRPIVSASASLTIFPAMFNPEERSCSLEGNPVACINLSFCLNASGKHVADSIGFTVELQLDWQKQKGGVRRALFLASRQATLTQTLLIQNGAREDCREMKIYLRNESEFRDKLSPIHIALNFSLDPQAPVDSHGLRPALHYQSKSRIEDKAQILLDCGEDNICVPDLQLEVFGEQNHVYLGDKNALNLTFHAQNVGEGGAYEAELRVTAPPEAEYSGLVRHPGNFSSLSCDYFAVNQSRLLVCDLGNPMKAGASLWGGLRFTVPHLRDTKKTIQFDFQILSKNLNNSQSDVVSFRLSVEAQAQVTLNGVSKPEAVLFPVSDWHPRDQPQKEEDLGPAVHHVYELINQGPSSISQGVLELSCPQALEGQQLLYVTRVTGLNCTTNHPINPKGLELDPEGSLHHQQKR
Chain of α5β1 integrin (P08648 895-1049 limits assumed): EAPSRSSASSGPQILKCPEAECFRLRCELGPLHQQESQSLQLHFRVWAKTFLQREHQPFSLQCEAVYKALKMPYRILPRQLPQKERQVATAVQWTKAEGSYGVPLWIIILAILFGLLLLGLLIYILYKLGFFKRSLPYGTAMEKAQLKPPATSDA
Chain of α5β1 integrin (P05556 21-798): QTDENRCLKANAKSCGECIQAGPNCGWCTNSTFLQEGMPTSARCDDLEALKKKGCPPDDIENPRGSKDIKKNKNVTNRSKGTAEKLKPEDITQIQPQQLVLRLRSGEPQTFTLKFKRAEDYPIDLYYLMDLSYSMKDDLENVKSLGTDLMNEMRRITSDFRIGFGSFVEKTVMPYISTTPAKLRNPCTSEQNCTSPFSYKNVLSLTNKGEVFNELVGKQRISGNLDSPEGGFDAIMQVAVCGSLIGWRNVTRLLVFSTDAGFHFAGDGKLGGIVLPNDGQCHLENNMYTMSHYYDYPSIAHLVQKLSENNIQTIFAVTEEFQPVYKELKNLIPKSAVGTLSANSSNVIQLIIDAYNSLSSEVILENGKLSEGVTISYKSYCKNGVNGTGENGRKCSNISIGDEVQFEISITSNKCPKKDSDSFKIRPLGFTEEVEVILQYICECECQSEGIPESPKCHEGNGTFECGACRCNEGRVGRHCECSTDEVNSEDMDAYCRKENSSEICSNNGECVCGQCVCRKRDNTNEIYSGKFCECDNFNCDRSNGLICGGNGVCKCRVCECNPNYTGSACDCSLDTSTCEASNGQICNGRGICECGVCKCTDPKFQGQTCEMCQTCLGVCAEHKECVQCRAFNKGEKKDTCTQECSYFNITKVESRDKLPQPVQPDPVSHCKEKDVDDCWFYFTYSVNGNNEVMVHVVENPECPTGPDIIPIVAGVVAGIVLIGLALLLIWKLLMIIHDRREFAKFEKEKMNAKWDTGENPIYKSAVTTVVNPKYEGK

B1: F200: Fab fragment of volociximab; heavy chain SEQ ID NO: 6, light chain same as M200 (antibody, chains of the INN, looked up, V domains shown)
VH: QVQLKESGPGLVAPSQSLSITCTISGFSLTDYGVHWVRQPPGKGLEWLVVIWSDGSSTYNSALKSRMTIRKDNSKSQVFLIMNSLQTDDSAMYYCARHGTYYGMTTTGDALDYWGQGTSVTVSS
VL: QIVLTQSPAIMSASLGERVTMTCTASSSVSSNYLHWYQQKPGSAPNLWIYSTSNLASGVPARFSGSGSGTSYSLTISSMEAEDAATYYCHQYLRSPPTFGGGTKLEIK
modifications: Fab
As for B1, the anti-angiogenic activity result in series [1] and in series [2] was “significant anti-angiogenic activity” throughout. For the same molecule, the “α5β1 integrin antagonistic activity” value with α5β1 integrin was “shown to have α5β1 integrin antagonistic activity”.
